Experimental findings from patent US10208288B2, “Differentiation of human embryonic stem cells into pancreatic endocrine cells” (Janssen Biotech, Inc., priority 2012, dated 2019) are described below.

The assay relates to cells of the human embryonic stem cell line H1 differentiated to stage 5. The assay is described as follows: Immunostaining for insulin protein expression at the end of Stage 5. Format: cell-based. Conditions: 50 or 100 ng/ml for three days at stage 5, immunostaining vs control; FIG. 2, FIG. 3. How it is done: Cells of the human embryonic stem cell line H1 (hESC H1, passage 40) were seeded as single cells at 1×10^5 cells/cm^2 on MATRIGEL™ (1:30 dilution; BD Biosciences, NJ)-coated dishes in mTeSR®1 media supplemented with 10 μM of Y27632. Forty-eight hours post seeding, cultures were washed in incomplete PBS (phosphate buffered saline without Mg or Ca). Cultures were differentiated into pancreatic endoderm/endocrine lineages as follows: • a) Stage 1 (Definitive Endoderm (DE)—3 days): Cells were cultured for one day in stage 1 media (see Example 1, above). Cells were then cultured for an additional day in MCDB-131 medium supplemented with 0.1% fatty acid-free BSA, 0.0012 g/ml sodium bicarbonate, 1× GlutaMax™, 4.5 mM D-Glucose, 100 ng/ml GDF8, and 0.1 μM MCX compound. […]

B1: Ephrin-A3: Ephrin ligand protein from R & D systems (protein, UniProt P52797 23-214, looked up)
Ephrin-A3: QGPGGALGNRHAVYWNSSNQHLRREGYTVQVNVNDYLDIYCPHYNSSGVGPGAGPGPGGGAEQYVLYMVSRNGYRTCNASQGFKRWECNRPHAPHSPIKFSEKFQRYSAFSLGYEFHAGHEYYYISTPTHNLHWKCLRMKVFVCCASTSHSGEKPVPTLPQFTMGPNVKINVLEDFEGENPQVPKLEKSISG
On to B1, for which the “protein expression of insulin” value is “significantly enhanced”.
